Measured values: patent US20230029835A1 (KEYMED BIOSCIENCES, published 2023)
Residue numbers refer to the chain shown, from its start. Read-outs that look alike come from different tables or passages of the source.

Legend:
[1] = biological target: T1, Cynomolgus macaques TSLP recombinant protein (Cynomolgus macaques, UniProt Q969D9 29-159 (human entry), limits assumed, biotinylated in the blocking assays (sites not given)); assay: ELISA on coated cynomolgus TSLP;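 as to result: Read-out was TMB colorimetric signal measured as absorbance at 450 nm after 10 min development at 37 °C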
T1 construct: also called cyTSLP; biotinylated Cynomolgus macaques TSLP protein
T1 chain: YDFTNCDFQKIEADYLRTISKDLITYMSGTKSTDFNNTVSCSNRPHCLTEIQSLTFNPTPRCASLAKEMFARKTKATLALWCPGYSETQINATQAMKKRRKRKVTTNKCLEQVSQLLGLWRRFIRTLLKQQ

[2] = biological target: T2, human TSLP recombinant protein (human, UniProt Q969D9 29-159, biotinylated in the blocking and cell-binding assays (sites not given)); assay: ELISA on coated human TSLP
T2 construct: also called biotinylated human TSLP protein

[3] = biological target: T2, human TSLP recombinant protein; assay: cell-based or functional assay
[4] = biological target: T1, Cynomolgus macaques TSLP recombinant …; assay: competition ELISA, biotin-cynomolgus TSLP to coated cynomolgus TSLPR-Fc
Method: Cynomolgus macaques TSLPR recombinant protein was coated onto a 96-well microtiter plate at 1 g/mL in carbonate buffer overnight at 4° C. The plate was washed three times with PBS and blocked by adding 200 μL/well of PBS containing 2% skim milk for 1 hour. […] The 96-well plate was washed three times with PBS, and 100 μL of the incubated mixture was added to each well and incubated for 1 hour at room temperature. After washing with PBST and PBS three times, respectively, 100 μL of SA-HRP was added to each well and incubated at room temperature for 30 minutes in the dark. After washing with PBST and PBS three times, respectively, 100 μL of TMB substrate was added to well for color development at 37° C. for 10 minutes, the reaction was terminated with 50 μL of 2M sulfuric acid solution per well, and the absorbance was read at a wavelength of 450 nm.

[5] = biological target: T2, human TSLP recombinant protein; assay: competition ELISA, biotin-human TSLP to coated human TSLPR-Fc
Method: (§1) Human TSLPR recombinant protein was coated onto a 96-well microtiter plate at 1 μg/mL in carbonate buffer overnight at 4° C. The plate was washed three times with PBS and blocked by adding 200 μL/well of PBS containing 2% skim milk for 1 hour. […] The 96-well plate was washed three times with PBS, and 100 μL of the incubated mixture was added to each well and incubated for 1 hour at room temperature. After washing with PBST and PBS three times, respectively, 100 μL of SA-HRP was added to each well and incubated at room temperature for 30 minutes in the dark. After washing with PBST and PBS three times, respectively, 100 μL of TMB substrate was added to well for color development at 37° C. for 10 minutes, the reaction was terminated with 50 μL of 2M sulfuric acid solution per well, and the absorbance was read at a wavelength of 450 nm.

[6] = biological target: T2, human TSLP recombinant protein; assay: flow cytometry competition, biotin-human TSLP to Ba/F3-hTSLPR-IL7Rα cells
Method: Ba/F3-hTSLPR-IL7Rα cells were washed three times with PBS, centrifuged at 300 g for 3 minutes, and blocked with 3% BSA/PBS for 30 minutes. The cells were resuspended and added to a 96-well U-plate at 5×10⁴/well.

[7] = biological target: T2, human TSLP recombinant protein; assay: competition ELISA, biotin-human TSLP to coated human TSLPR-Fc; remark: listed apart in the source
Method: as §1

[8] = biological target: T2, human TSLP recombinant protein; assay: SPR BIAcore T200, antibody captured on Protein A, human TSLP injected
Method: After each injection cycle, the Protein A chip surface was regenerated with regeneration buffer 10 mM glycine (pH 2.0) at a flow rate of 30 μL/min.
The association rate constant (ka) and dissociation rate constant (kd) and equilibrium dissociation constant KD were analyzed by fitting the resulting data to a Langmuir 1:1 kinetics theoretical model using BIAevaluation software.

[9] = biological target: T1, Cynomolgus macaques TSLP recombinant …; assay: ELISA on coated cynomolgus TSLP
Method: (§2) The plate was washed three times with PBS and blocked by adding 200 μL/well of PBS containing 2% skim milk for 1 hour. […] After washing with PBST and PBS three times, respectively, 100 μL of TMB substrate was added to each well for color development at 37° C. for 10 minutes, the reaction was terminated with 50 μL of 2M sulfuric acid solution per well, and the absorbance was read at a wavelength of 450 nm.

[10] = biological target: T2, human TSLP recombinant protein; assay: cell-based or functional assay; remark: listed apart in the source
[11] = biological target: T2, human TSLP recombinant protein; assay: ELISA on coated human TSLP; remark: listed apart in the source
Method: as §2

[12] = biological target: T1, Cynomolgus macaques TSLP recombinant …; assay: competition ELISA, biotin-cynomolgus TSLP to coated cynomolgus TSLPR-Fc
Method: Cynomolgus macaques TSLPR recombinant protein was coated onto a 96-well microtiter plate at 1 μg/mL in carbonate buffer overnight at 4° C. The plate was washed three times with PBS and blocked by adding 200 μL/well of PBS containing 2% skim milk for 1 hour. […] The 96-well plate was washed three times with PBS, and 100 μL of the incubated mixture was added to each well and incubated for 1 hour at room temperature. After washing with PBST and PBS three times, respectively, 100 μL of SA-HRP was added to each well and incubated at room temperature for 30 minutes in the dark. After washing with PBST and PBS three times, respectively, 100 μL of TMB substrate was added to well for color development at 37° C. for 10 minutes, the reaction was terminated with 50 μL of 2M sulfuric acid solution per well, and the absorbance was read at a wavelength of 450 nm.

B1: Ab6 (antibody, V domains shown)
VH: QVQLVQSGAEVKKPGSSVKVSCKASGYTFTDYWMHWVRQAPGQGLEWMGTIDNSDSDTSLNQKFQGRVTLTVDTSTSTAYMELSSLRSEDTAVYYCARSLDGYYDYWGQGTLVTVSS
VL: DIQMTQSPSSLSASVGDRVTITCRASENIYSYLAWYQQKPGKAPKLLIYNARTLPEGVPSRFSGSGSGTDFTLTISSLQPEDFATYYCQHHYTTPWTFGQGTKVEIK
notes: Humanized; also called h39G5VHv6/h39G5VKv1
In the case of B1, the binding result [1] is reported as “binds” and the EC50 [2] is reported as 2.79 nM.

B2: Ab21 (antibody, V domains shown)
VH: B1 VH with S59T, L60Y, L70M, V72R, A79V, L100V, Y104L
VL: B1 VL with A25T, N50F, R52K, P55T, E56D, T93G
notes: Humanized; also called h71G4VHv3/h71G4VKv1
In the case of B2, the “Inhibition of Cell Proliferation IC50” value [3] is reported as 178 nM, the EC50 [1] is reported as 0.54 nM and the IC50 [4] is reported as 1.08 nM. For the same binder, the IC50 [5] was 2.18 nM, the EC50 [2] was 0.28 nM and the IC50 [6] was 0.36 nM.

B3: Ab19 (antibody, V domains shown)
VH: QVQLVQSGAEVKKPGSSVKVSCKASGYTFTDYWMHWVRQAPGQGLEWMGTIDNSDSDTTYNPSFQGHVTISADKSISTAYLQWSSLKASDTAMYYCARSVDGYLDYWGQGTLVTVSS
VL: B1 VL with A25T, N50F, R52K, P55T, E56D, T93G
notes: Humanized; also called h71G4VHv1/h71G4VKv1
B3 gave an EC50 [1] of 0.65 nM, an IC50 [4] of 1.76 nM and an IC50 [5] of 2.74 nM. It also gave an EC50 [2] of 0.27 nM and an IC50 [6] of 0.45 nM.

B4: Ab27 (antibody, V domains shown)
VH: B1 VH with L70I, V72A
VL: B1 VL with A25T, N50F, R52K, P55T, E56D, T93G
notes: Humanized; also called h39G5VHv11/h71G4VKv1
B4 gave an EC50 [1] of 4.22 nM and an EC50 [2] of 1.08 nM.

B5: Ab11 (antibody, V domains shown)
VH: B1 VH with L70I, V72A
VL: B1 VL
notes: Humanized; also called h39G5VHv11/h39G5VKv1
With B5 the binding result [1] was “binds” and the EC50 [2] was 36 nM.

B6: Ab20 (antibody, V domains shown)
VH: B1 VH with S59T, L60Y, L100V, Y104L
VL: B1 VL with A25T, N50F, R52K, P55T, E56D, T93G
notes: Humanized; also called h71G4VHv2/h71G4VKv1
In the case of B6, the “Inhibition of Cell Proliferation IC50” value [3] is reported as 46.2 nM, the EC50 [1] is reported as 0.27 nM and the IC50 [4] is reported as 1.32 nM. For the same binder, the IC50 [5] was 2 nM, the EC50 [2] was 0.17 nM and the IC50 [6] was 0.33 nM.

B7: Ab9 (antibody, V domains shown)
VH: EVQLVQSGAEVKKPGESLKISCKASGYTFTDYWMHWVRQMPGKGLEWMGTIDNSDSDTSLNQSFQGHVTLSVDKSSTTAYLQWSSLKASDTAMYYCARSLDGYYDYWGQGTLVTVSS
VL: B1 VL
notes: Humanized; also called h39G5VHv9/h39G5VKv1
B7 was tested, and the EC50 [1] was 209 nM and the EC50 [2] was 3.03 nM.

B8: Ab18 (antibody, V domains shown)
VH: B1 VH with S59T, L60Y, L70M, V72R, A79V, L100V, Y104L
VL: B1 VL
notes: Humanized; also called h71G4VHv3/h39G5VKv1
Binder B8 has an EC50 [1] of 17.9 nM and an EC50 [2] of 2.15 nM.

B9: Ab16 (antibody, V domains shown)
VH: B3 VH
VL: B1 VL
notes: Humanized; also called h71G4VHv1/h39G5VKv1
B9 gave an EC50 [1] of 12.6 nM and an EC50 [2] of 5.87 nM.

B10: Ab2 (antibody, V domains shown)
VH: B1 VH with T28S, T30I, D31S, M34I, T50I, N53P, L70I, V72A, T74E
VL: B1 VL
notes: Humanized; also called h39G5VHv2/h39G5VKv1
B10 gave an EC50 [1] of 2.53 nM, an IC50 [4] of 1.1 nM and an IC50 [5] of 1.49 nM. It also gave an EC50 [2] of 0.21 nM.

B11: Ab5 (antibody, V domains shown)
VH: B1 VH with T50I, N53P
VL: B1 VL
notes: Humanized; also called h39G5VHv5/h39G5VKv1
B11 showed an EC50 [1] of 2.85 nM, an IC50 [4] of 0.28 nM and an IC50 [5] of 1.69 nM. For the same binder, the EC50 [2] was 0.26 nM.

B12: Ab7 (antibody, V domains shown)
VH: B1 VH with T74E, T76S
VL: B1 VL
notes: Humanized; also called h39G5VHv7/h39G5VKv1
With B12 the binding result [1] was “binds” and the EC50 [2] was 1.89 nM.

B13: Ab25 (antibody, V domains shown)
VH: B1 VH
VL: B1 VL with A25T, N50F, R52K, P55T, E56D, T93G
notes: Humanized; also called h39G5VHv6/h71G4VKv1
With B13 the EC50 [1] was 1.16 nM, the IC50 [4] was 0.85 nM and the IC50 [5] was 1.82 nM. For the same binder, the EC50 [2] was 0.27 nM and the IC50 [6] was 0.35 nM.

B14: Ab17 (antibody, V domains shown)
VH: B1 VH with S59T, L60Y, L100V, Y104L
VL: B1 VL
notes: Humanized; also called h71G4VHv2/h39G5VKv1
Work on B14 yielded an EC50 [1] of 4.44 nM and an EC50 [2] of 1.98 nM.

B15: Ab4 (antibody, V domains shown)
VH: EVQLVQSGAEVKKPGESLRISCKASGYSFISYWIHWVRQMPGKGLEWMGIIDPSDSDTSLNQSFQGHVTISADKSISTAYLQWSSLKASDTAMYYCARSLDGYYDYWGQGTLVTVSS
VL: B1 VL
notes: Humanized; also called h39G5VHv4/h39G5VKv1
B15 was tested, and the EC50 [1] was 5.54 nM, the IC50 [4] was 0.43 nM and the IC50 [5] was 1.69 nM. For the same binder, the EC50 [2] was 0.39 nM.

B16: Ab8 (antibody, V domains shown)
VH: B7 VH with T50I, N53P
VL: B1 VL
notes: Humanized; also called h39G5VHv8/h39G5VKv1
Binder B16 has an EC50 [1] of 5.51 nM, an IC50 [4] of 1 nM and an IC50 [5] of 2.05 nM. It also gave an EC50 [2] of 0.4 nM.

B17: Ab3 (antibody, V domains shown)
VH: B15 VH with I70L, A72V, I76S, S77T
VL: B1 VL
notes: Humanized; also called h39G5VHv3/h39G5VKv1
Binder B17 has an EC50 [1] of 2.22 nM, an IC50 [4] of 0.62 nM and an IC50 [5] of 1.65 nM. The EC50 [2] was 0.22 nM.

B18: Ab15 (antibody, V domains shown)
VH: B7 VH with L70I, V72A
VL: B1 VL
notes: Humanized; also called h39G5VHv15/h39G5VKv1
For B18, the binding result [1] was “no binding” and the EC50 [2] was 62.9 nM.

B19: Ab13 (antibody, V domains shown)
VH: B15 VH with R19K, S28T, I30T, S31D, I34M
VL: B1 VL
notes: Humanized; also called h39G5VHv13/h39G5VKv1
Binder B19 has an EC50 [1] of 5.68 nM, an IC50 [4] of 0.55 nM and an IC50 [5] of 1.1 nM. For the same binder, the EC50 [2] was 0.66 nM.

B20: Ab1 (antibody, V domains shown)
VH: B1 VH with T28S, T30I, D31S, M34I, T50I, N53P, T74K, T76S, S77T
VL: B1 VL
notes: Humanized; also called h39G5VHv1/h39G5VKv1
For B20, the EC50 [1] was 2.29 nM, the IC50 [4] was 1.78 nM and the IC50 [5] was 1.7 nM. The EC50 [2] was 0.19 nM.

B21: Ab10 (antibody, V domains shown)
VH: B1 VH with T50I, N53P, L70I, V72A
VL: B1 VL
notes: Humanized; also called h39G5VHv10/h39G5VKv1
In the case of B21, the EC50 [1] is reported as 2.24 nM, the IC50 [4] is reported as 0.37 nM and the IC50 [5] is reported as 1.36 nM. It also gave an EC50 [2] of 0.32 nM.

B22: 76A8 chimeric antibody (antibody, V domains shown)
VH: QVQLQQSGPQLVRPGASVKISCKASGYSFTSYWMHWVKQRPGQGLEWIGLIDPSDSETGLNQRFKDKATLTVDNPSSTAYMQLSSPTSEDSAVYYCARSLDGYYDYWGQGTTLTVSS
VL: DIQMIQSPASLSASVGETVTITCRASGNIHNYLAWYQQKQGKSPQLLVYNAKTLADGVPSRFSGSGSGTQYSLKINSLQPEDFGSYYCQHFWSTPWTFGGGTRLEIK
Work on B22 yielded an IC50 [7] of 1.42 nM, a Kd [8] of 0.026 nM and a koff [8] of 8.36e-05 s⁻¹. The kon [8] was 3.22e+06 M⁻¹ s⁻¹, the EC50 [9] was 0.47 nM and the “Inhibition IC50 of STAT5 reporter gene” value [10] was 9.78 nM. The EC50 [11] was 0.26 nM and the IC50 [12] was 0.73 nM.

B23: 79D6 chimeric antibody (antibody, V domains shown)
VH: QVQLQQSGAELVMPGASVKMSCKASGYTFTGYWMHWVKQRPGQGLEWIGTIDNSDSDTTYNQKFKGKVTLTVDESSSTAYMQLSSLTSEDSAVYYCARSVDGYLDYWGQGTTLTVSS
VL: DIQMIQSPASLSASVGETVTITCRASENIYSYLAWYQQIQGKSPQLLVYYAKTLPEGVPSRFSGSGSGTQFSLKINSLQPEDFGSYYCQHHYGTPWTFGGGTKLEIK
B23 showed an IC50 [7] of 1.35 nM, a Kd [8] of 0.0204 nM and a koff [8] of 8.77e-05 s⁻¹. The kon [8] was 4.31e+06 M⁻¹ s⁻¹, the EC50 [9] was 0.73 nM and the “Inhibition IC50 of STAT5 reporter gene” value [10] was 9.61 nM. For the same binder, the EC50 [11] was 0.58 nM and the IC50 [12] was 0.31 nM.
